Test results taken from the supplement of paper PMC10126150.
± gives the standard deviation of the averaged measurements.

system: ATP; experiment: switch fluorescence ratio, 500 uM ATP over buffer (Cy3 cluster intensity, sum of 5 cycles each) (fold (ratio)); higher = stronger signal-on switching upon ATP binding; sequences stand for … in TCGTCGGCAGCGTCAGATGTGTATAAGAGACAGTTTTTTTTTTTTTTTTTTTTTTTTT…TC; settings: aptamer strand: ATP DNA aptamer (quencher-CACCTGGGGGAGTATTGCGGAGGAAGG + anchor), 100 nM annealed; ATP concentration: 500 uM
Outline: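 Imaging in selection buffer was followed by imaging after 15 min with 500 uM ATP at 22 °C, for Cy3-labelled switching-strand clusters annealed to 100 nM quencher-labelled ATP aptamer on a modified Illumina MiSeq flow-cell. Five of these buffer/ATP cycles ran, separated by NaOH stripping and re-annealing. The fluorescence ratio per cluster is summed target-cycle over summed buffer-cycle Cy3 intensity, averaged per switch-domain sequence; clusters outside 100-1000 RFU were removed.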
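Also: ATP exposure 15 min at 22 °C before imaging.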

| Sequence | switch fluorescence ratio |
| --- | --- |
| ATATCTATAG | 0.958 ± 0.018 |
| ATATCTGAGT | 1.03 ± 0.016 |
| ATATCTTTCT | 1.006 ± 0.0023 |
| ATATCTTTTT | 0.983 ± 0.037 |
| ATATGAAAAT | 1.01 ± 0.032 |
| ATATGAAGAA | 0.968 ± 0.01 |
| ATATGACGCT | 1.04 ± 0.09 |
| ATATGCGGGG | 0.949 ± 0.011 |
| ATATGGCCGT | 0.994 ± 0.023 |
| ATATGGGCGG | 0.98 ± 0.016 |
| ATATGGGGGA | 0.99 ± 0.038 |
| ATATGGTAAA | 0.958 ± 0.015 |
| ATATGTAGAG | 1.05 ± 0.046 |
| ATATGTCGGT | 0.963 ± 0.013 |
| ATATGTCTAG | 0.989 ± 0.01 |
| ATATTAAAAT | 1.02 ± 0.021 |
| ATATTAAGGC | 0.983 ± 0.017 |
| ATATTAGGTT | 0.998 ± 0.018 |
| ATATTGACCG | 1.03 ± 0.022 |
| ATATTGATAG | 1 ± 0.0064 |
| ATATTGGGCC | 0.997 ± 0.017 |
| ATATTGTACG | 1.03 ± 0.022 |
| ATATTGTAGT | 0.9969 ± 0.0089 |
| ATATTGTGGG | 0.987 ± 0.023 |
| ATATTGTGTG | 1.01 ± 0.048 |

| Sequence | switch fluorescence ratio |
| --- | --- |
| ATATTTATCG | 1.01 ± 0.033 |
| ATATTTATTT | 1.015 ± 0.009 |
| ATATTTCATG | 1.006 ± 0.0091 |
| ATATTTCTAA | 1.0113 ± 0.00013 |
| ATATTTCTGG | 0.986 ± 0.018 |
| ATATTTCTGT | 0.981 ± 0.019 |
| ATATTTGCGA | 0.973 ± 0.022 |
| ATATTTTAGT | 1.03 ± 0.031 |
| ATATTTTATT | 1.02 ± 0.031 |
| ATATTTTCGC | 1.04 ± 0.03 |
| ATATTTTTGT | 1.03 ± 0.014 |
| ATCAAAGTTT | 0.994 ± 0.042 |
| ATCAAATAGT | 1.01 ± 0.037 |
| ATCAAGTCGG | 0.969 ± 0.02 |
| ATCAAGTGGT | 0.9701 ± 0.006 |
| ATCAATATAG | 1.03 ± 0.018 |
| ATCAATGACG | 0.95 ± 0.059 |
| ATCACGGGGA | 1.01 ± 0.032 |
| ATCACGTCGG | 1.014 ± 0.0093 |
| ATCACTGGTA | 1.03 ± 0.017 |
| ATCAGAATAC | 1.74 ± 0.43 |
| ATCAGAGGTA | 1.01 ± 0.014 |
| ATCAGCCGGC | 0.99 ± 0.034 |
| ATCAGGGCT | 1.01 ± 0.028 |
| ATCAGGGGAG | 1 ± 0.018 |

| Sequence | switch fluorescence ratio |
| --- | --- |
| ATCAGGGGGC | 1.03 ± 0.036 |
| ATCAGGGTGT | 1.16 ± 0.031 |
| ATCAGGTGCG | 1.2924 ± 0.00069 |
| ATCATAATAC | 1.406 ± 0.0065 |
| ATCATAATTG | 1.005 ± 0.0092 |
| ATCATCGCAG | 1.08 ± 0.058 |
| ATCATCTGAA | 0.987 ± 0.016 |
| ATCATCTTGT | 1.042 ± 0.0015 |
| ATCATGGATG | 0.997 ± 0.019 |
| ATCATGTGGC | 0.989 ± 0.025 |
| ATCATTGCGG | 0.9746 ± 0.0012 |
| ATCATTGCTG | 0.949 ± 0.056 |
| ATCATTGGTT | 1.01 ± 0.015 |
| ATCATTTATT | 1.01 ± 0.042 |
| ATCATTTGGC | 0.981 ± 0.068 |
| ATCATTTTAG | 0.995 ± 0.01 |
| ATCCACGCTA | 1.45 ± 0.022 |
| ATCCAGGTTT | 1.1 ± 0.036 |
| ATCCCAATGT | 1.14 ± 0.026 |
| ATCCCTTCCA | 1.24 ± 0.087 |
| ATCCGGGCGG | 1.02 ± 0.071 |
| ATCCGTTGCT | 1.01 ± 0.048 |
| ATCCTGGGGG | 1.4 ± 0.7 |
| ATCCTGTAGT | 0.999 ± 0.044 |
| ATCCTTGTGT | 0.993 ± 0.02 |

| Sequence | switch fluorescence ratio |
| --- | --- |
| ATCCTTTTGG | 1.03 ± 0.094 |
| ATCGAAAGTT | 0.99 ± 0.013 |
| ATCGAAGGTC | 0.999 ± 0.015 |
| ATCGAATGCT | 1.001 ± 0.0096 |
| ATCGACCGGC | 1.04 ± 0.071 |
| ATCGACTTGG | 1.016 ± 0.0053 |
| ATCGAGAGGC | 1.06 ± 0.047 |
| ATCGATCGTT | 0.9986 ± 0.0027 |
| ATCGATGGGA | 0.987 ± 0.07 |
| ATCGATTTCG | 0.975 ± 0.017 |
| ATCGCAGACA | 1.04 ± 0.015 |
| ATCGCTAGCT | 0.9905 ± 0.0068 |
| ATCGGAATCC | 1.19 ± 0.094 |
| ATCGGACGGG | 1.02 ± 0.016 |
| ATCGGATTAG | 0.995 ± 0.0094 |
| ATCGGCACAT | 1.1 ± 0.012 |
| ATCGGCGCGC | 0.9957 ± 0.0026 |
| ATCGGGAACT | 1.02 ± 0.015 |
| ATCGGGGGAC | 0.959 ± 0.021 |
| ATCGGGGGGC | 1 ± 0.055 |
| ATCGGGGGGT | 1.01 ± 0.035 |
| ATCGGGGGTA | 0.982 ± 0.016 |
| ATCGGGTCGA | 1 ± 0.023 |
| ATCGGGTGTA | 0.994 ± 0.013 |
| ATCGGTACTG | 0.965 ± 0.027 |

| Sequence | switch fluorescence ratio |
| --- | --- |
| ATCGGTTTCT | 1.002 ± 0.0083 |
| ATCGGTTTGG | 0.996 ± 0.0095 |
| ATCGTAAGGA | 1.02 ± 0.046 |
| ATCGTACAGC | 1.13 ± 0.017 |
| ATCGTCACGG | 1.022 ± 0.0012 |
| ATCGTCGGAT | 0.982 ± 0.022 |
| ATCGTCTCGC | 1.03 ± 0.05 |
| ATCGTGGGGT | 0.971 ± 0.016 |
| ATCGTGTATG | 0.968 ± 0.028 |
| ATCGTTAAAC | 1.01 ± 0.0099 |
| ATCGTTAATT | 0.981 ± 0.041 |
| ATCGTTACGA | 1.02 ± 0.026 |
| ATCGTTCGCG | 0.996 ± 0.016 |
| ATCGTTCTTT | 0.973 ± 0.027 |
| ATCGTTGCGT | 1.02 ± 0.031 |
| ATCTAAACTT | 1.02 ± 0.035 |
| ATCTAAATAA | 1.03 ± 0.019 |
| ATCTAAGGTT | 1.01 ± 0.025 |
| ATCTAGCAAC | 1.36 ± 0.049 |
| ATCTAGGTAC | 1.06 ± 0.058 |
| ATCTATCGGA | 1.0073 ± 0.00071 |
| ATCTATGCGA | 1.0635 ± 0.0004 |
| ATCTCAGGGC | 0.979 ± 0.014 |
| ATCTCATAGT | 1 ± 0.025 |
| ATCTCCGGTT | 1.1 ± 0.17 |

| Sequence | switch fluorescence ratio |
| --- | --- |
| ATCTCTTTCT | 1.04 ± 0.019 |
| ATCTGACTCC | 2.52 ± 0.19 |
| ATCTGATGCG | 0.981 ± 0.1 |
| ATCTGCCTGC | 1.074 ± 0.009 |
| ATCTGGGCGG | 0.997 ± 0.029 |
| ATCTGGGGAA | 1.01 ± 0.045 |
| ATCTGGTAAT | 1.005 ± 0.0031 |
| ATCTGGTTTG | 0.955 ± 0.023 |
| ATCTGTAAGG | 1.02 ± 0.043 |
| ATCTGTAGGG | 1.023 ± 0.0075 |
| ATCTGTCAGT | 0.9807 ± 0.0092 |
| ATCTGTTAGG | 1.03 ± 0.041 |
| ATCTTAATTG | 1.005 ± 0.0075 |
| ATCTTATGTT | 0.987 ± 0.025 |
| ATCTTTCCTG | 1.053 ± 0.0087 |
| ATCTTTTTCT | 1.03 ± 0.052 |
| ATGAAAATGG | 0.971 ± 0.019 |
| ATGAAAGACG | 1.04 ± 0.075 |
| ATGAAAGTAT | 1.011 ± 0.0061 |
| ATGAACTAGG | 0.991 ± 0.022 |
| ATGAAGACGG | 1.03 ± 0.059 |
| ATGAAGGATG | 1.01 ± 0.02 |
| ATGAAGGGAG | 0.991 ± 0.061 |
| ATGAAGTGGA | 0.9555 ± 0.0093 |
| ATGAAGTTTT | 1.02 ± 0.028 |

| Sequence | switch fluorescence ratio |
| --- | --- |
| ATGAATGAGT | 0.985 ± 0.016 |
| ATGAATGCGG | 0.99 ± 0.0094 |
| ATGAATTGGA | 0.989 ± 0.017 |
| ATGACAGAAG | 1.03 ± 0.05 |
| ATGACCTTCA | 2.1 ± 0.078 |
| ATGACGGAGC | 1.94 ± 0.31 |
| ATGACGGTGG | 0.94 ± 0.014 |
| ATGAGAAGAC | 1.02 ± 0.021 |
| ATGAGAGGAA | 0.981 ± 0.028 |
| ATGAGAGGAT | 0.9797 ± 0.0026 |
| ATGAGATTCG | 0.99 ± 0.026 |
| ATGAGCTGTG | 1.01 ± 0.056 |
| ATGAGGATGT | 1 ± 0.019 |
| ATGAGGGATT | 0.965 ± 0.011 |
| ATGAGGGGTG | 1.013 ± 0.0076 |
| ATGAGGTCGT | 1.008 ± 0.007 |
| ATGAGTGGCT | 0.999 ± 0.054 |
| ATGAGTTTTC | 1.024 ± 0.0043 |
| ATGATACCTT | 1.17 ± 0.019 |
| ATGATAGGGG | 0.998 ± 0.023 |
| ATGATATTAG | 1.004 ± 0.0066 |
| ATGATCAACG | 0.999 ± 0.015 |
| ATGATCAGCT | 0.9824 ± 0.0077 |
| ATGATCCCCG | 1.05 ± 0.025 |
| ATGATCGCGT | 1.01 ± 0.024 |

| Sequence | switch fluorescence ratio |
| --- | --- |
| ATGATCTAGT | 1.03 ± 0.064 |
| ATGATCTCCG | 1.32 ± 0.017 |
| ATGATGAAGA | 1.02 ± 0.019 |
| ATGATGAAGT | 1.02 ± 0.017 |
| ATGATGGGGT | 1.01 ± 0.06 |
| ATGATGTGAG | 1.01 ± 0.051 |
| ATGATTATAT | 0.99 ± 0.017 |
| ATGATTCAGC | 1.03 ± 0.083 |
| ATGATTCTGT | 1 ± 0.021 |
| ATGATTGCAC | 1.01 ± 0.057 |
| ATGATTGTCG | 0.994 ± 0.017 |
| ATGATTTGGC | 1.04 ± 0.048 |
| ATGATTTTAG | 1 ± 0.031 |
| ATGATTTTGG | 0.992 ± 0.023 |
| ATGCAATTTT | 1.017 ± 0.0034 |
| ATGCACACTC | 1.225 ± 0.0043 |
| ATGCAGAGAG | 1.01 ± 0.031 |
| ATGCAGAGTA | 1.01 ± 0.018 |
| ATGCAGCAT | 1.06 ± 0.036 |
| ATGCAGGGTT | 0.978 ± 0.053 |
| ATGCAGTGTG | 1.02 ± 0.019 |
| ATGCATACTG | 1.03 ± 0.022 |
| ATGCATATCG | 1 ± 0.036 |
| ATGCATGGGA | 0.987 ± 0.02 |
| ATGCATTGTT | 1 ± 0.027 |
